Data from the Human Domainome abundance scans (Beltran et al. 2025).
± gives the uncertainty stated by the source.

B1: POU domain, class 2, transcription factor 3, residues 186 to 260; numbered along this chain, Q9UKI9 (parent)
chain: SDLEELEKFAKTFKQRRIKLGFTQGDVGLAMGKLYGNDFSQTTISRFEALNLSFKNMCKLKPLLEKWLNDAESSP

Variants of: B1
Assay: abundance fitness (aPCA) (normalised: wild type 0, dead -1); higher = more abundant; growth selection in yeast, the domain comes from the species named
Conditions: Homo sapiens

Abundance fitness, by site and new letter:
L52: S -0.25 ± 0.043, A -0.148 ± 0.039, M -0.004 ± 0.044, N -0.444 ± 0.1, W -0.201 ± 0.034, F -0.231 ± 0.08, I -0.183 ± 0.094, R -0.717 ± 0.048, E -0.131 ± 0.044, G -0.149 ± 0.027, K -0.618 ± 0.084, D -0.021 ± 0.11, C -0.107 ± 0.062, P -0.972 ± 0.19
K55: I -0.12 ± 0.13, R -0.015 ± 0.028, V -0.006 ± 0.034, Q 0.046 ± 0.046, H -0.132 ± 0.099, D 0.037 ± 0.052, F -0.031 ± 0.068, W -0.093 ± 0.042, P -0.155 ± 0.06, C -0.033 ± 0.078, E 0.016 ± 0.042, S 0.011 ± 0.036, N -0.152 ± 0.066, Y 0.069 ± 0.081, M -0.052 ± 0.047, L 0.001 ± 0.039, T -0.003 ± 0.047, G 0.009 ± 0.029
L60: N -0.395 ± 0.068, D -0.601 ± 0.11, I -0.067 ± 0.059, K -0.106 ± 0.058, W -0.074 ± 0.032, A -0.081 ± 0.035, Y -0.117 ± 0.052, V -0.02 ± 0.032, E -0.847 ± 0.095, H -0.285 ± 0.14, Q -0.242 ± 0.057, G -0.79 ± 0.055, M -0.062 ± 0.055, P -0.855 ± 0.14, F -0.079 ± 0.066, R -0.519 ± 0.04, T -0.039 ± 0.04
L63: N -0.026 ± 0.065, H 0.011 ± 0.061, E -0.127 ± 0.039, W -0.07 ± 0.037, G -0.06 ± 0.03, F -0.221 ± 0.079, M -0.027 ± 0.042, S -0.055 ± 0.036, Q -0.108 ± 0.055, A 0.024 ± 0.039, T -0.059 ± 0.053, Y -0.173 ± 0.11, I 0.072 ± 0.061, R -0.022 ± 0.03, C -0.031 ± 0.054, P -0.092 ± 0.047, V -0.032 ± 0.032
P62: K -0.036 ± 0.047, Y -0.624 ± 0.24, F -0.191 ± 0.1, W -0.365 ± 0.04, I -0.082 ± 0.097, R -0.149 ± 0.032, C -0.201 ± 0.062, V -0.128 ± 0.036, A -0.16 ± 0.039, N -0.24 ± 0.13, E -0.118 ± 0.041, Q -0.167 ± 0.054, G -0.085 ± 0.031, H -0.025 ± 0.12, T -0.163 ± 0.051
A71: C -0.169 ± 0.073
K59: T -0.007 ± 0.043, M -0.056 ± 0.043, G -0.086 ± 0.027, D -0.039 ± 0.055, W -0.129 ± 0.038, Q -0.03 ± 0.047, F 0.06 ± 0.065, H -0.015 ± 0.21, E 0.053 ± 0.037, P -0.733 ± 0.081, N -0.026 ± 0.061, I -0.037 ± 0.1, S -0.033 ± 0.036, A -0.013 ± 0.03, V -0.086 ± 0.032
E65: P -0.58 ± 0.083, M 0.043 ± 0.058, I 0.023 ± 0.13, A -0.07 ± 0.033, D -0.031 ± 0.061, T -0.133 ± 0.054, R -0.197 ± 0.036, N -0.047 ± 0.25, K 0.042 ± 0.057, V -0.095 ± 0.033, S -0.096 ± 0.037, C -0.033 ± 0.064, H -0.05 ± 0.32, F -0.118 ± 0.059, Y -0.215 ± 0.074, L -0.043 ± 0.033, W -0.211 ± 0.041, Q -0.109 ± 0.057
F54: R 0.024 ± 0.026, M 0.057 ± 0.049, W -0.024 ± 0.032, Q -0.025 ± 0.047, K 0.014 ± 0.043, V -0.012 ± 0.03, H 0.033 ± 0.082, C -0.068 ± 0.046, A 0.013 ± 0.032, G -0.05 ± 0.026, E 0.018 ± 0.038, L -0.041 ± 0.033, P -0.041 ± 0.042, Y 0.115 ± 0.058, D -0.063 ± 0.046, T 0.013 ± 0.041, S -0.059 ± 0.034, I -0.006 ± 0.054, N -0.037 ± 0.072
K61: L -0.198 ± 0.041, N -0.628 ± 0.14, E -0.273 ± 0.051, F -0.324 ± 0.092, P -0.829 ± 0.15, S -0.153 ± 0.041, C -0.194 ± 0.083, M -0.133 ± 0.045, T -0.254 ± 0.05, G -0.241 ± 0.032, R -0.02 ± 0.032, Y -0.108 ± 0.08, V -0.065 ± 0.036, Q -0.017 ± 0.041, H -0.183 ± 0.094, W -0.181 ± 0.041, A -0.05 ± 0.039, I -0.128 ± 0.063, D -0.898 ± 0.2
D70: F -0.059 ± 0.11, N -0.066 ± 0.12, I -0.02 ± 0.062, H -0.131 ± 0.15, R -0.049 ± 0.031, G -0.006 ± 0.031, Q 0.003 ± 0.054, A -0.059 ± 0.043, Y -0.021 ± 0.062, T 0.082 ± 0.064, M -0.103 ± 0.058, S -0.063 ± 0.038, L -0.09 ± 0.04, K -0.046 ± 0.058
